Where a chain is given by its changes, count along the chain named. Where no end group is shown, it is not given here.

In assay [1] the target is thrombin-cleaved human osteopontin (human), P10451. Description: cell-based or functional assay.
Assay [2] has as its target T1, hOPN5-BSA conjugate (human osteopontin peptide CVDTYDGRGDSVVYGLRS coupled to BSA) (human, also: coupled to maleimide-activated BSA (Sulfo-EMCS), site not given here).
T1 construct: Immobilized on the ELISA plate at 200 ng/100 uL/well as a BSA conjugate; also called hOPN5 peptide
T1 peptide: CVDTYDGRGDSVVYGLRS
Description: ELISA, hOPN5-BSA conjugate on the plate, HRP-labeled anti-human IgG (H+L) detection. How it is done:
(§1) The peptide having the above-described sequence (hereinafter also referred to as the hOPN5 peptide) was reacted with BSA incorporating a maleimide group introduced using Sulfo-EMCS (Dojindo Laboratories) to prepare a hOPN5-BSA conjugate. The hOPN5-BSA conjugate was immobilized at 200 ng/100 μL/well on an ELISA plate (Nunc Company) at 4° C. overnight, and the plate was washed, after which blocking was performed with PBS supplemented with 1% BSA at 4° C. overnight. An antibody sample diluted with PBS supplemented with 1% BSA was added to the plate at 100 μL/well, and they were reacted at 37° C. for 1 hour. Detection was performed using a peroxidase (HRP)-labeled anti-human IgG (H+L) antibody (Wako Pure Chemical Industries, Ltd.). Absorbance at a wavelength of 450 nm was measured using a microplate reader (Molecular Devices Company).
A general note: An ELISA detects its analyte on a solid surface through an enzyme-linked reagent.

Assay [3] has as its target human OPN peptide (SVVYGLR sequence of human OPN) (human). Put plainly: method not stated.
Assay [4] deals with T2, biotinized hOPN5 peptide (human, also: biotinylated, site not given here).
T2 peptide: CVDTYDGRGDSVVYGLRS
Description: surface plasmon resonance (BIAcore), biotinized hOPN5 peptide on Sensor Chip SA, F(ab')2-PEG at 5 ug/mL. As for the experimental part: The binding activity of the purified F(ab′)₂—PEG of R2K1v1.7 to the hOPN5 peptide was confirmed using surface plasmon resonance assay. The biotinized hOPN5 peptide was immobilized on Sensor Chip SA (BIAcore Company), and its binding activity was confirmed using the F(ab′)₂—PEG, previously diluted to 5 μg/mL with HBS-EP buffer (BIAcore Company); the results are shown in FIG. 16. From a rise in the signal, this F(ab′)₂—PEG was confirmed as having the same binding activity to the hOPN5 peptide as that of R2K1v1.7.

The target in assay [5] is T1, hOPN5-BSA conjugate (human osteopontin …). Description: ELISA, HRP-labeled anti-E-Tag antibody detection. How it is done: as §1
(§2) The binding activity of the purified R2K1v1.7-scFv to the hOPN5 peptide was measured by an ELISA method. The method was generally the same as described above; in this measurement, HRP-labeled anti-E-Tag antibody was used as the labeled antibody.

Assay [6] has as its target T3, BSA (UniProt P02769 25-607).
T3 construct: also called negative control BSA
Description: ELISA, detection with HRP-labeled anti-E-Tag antibody. How it is done: as §1, §2

Sequence of thrombin-cleaved human osteopontin (human), P10451 (P10451 17-314): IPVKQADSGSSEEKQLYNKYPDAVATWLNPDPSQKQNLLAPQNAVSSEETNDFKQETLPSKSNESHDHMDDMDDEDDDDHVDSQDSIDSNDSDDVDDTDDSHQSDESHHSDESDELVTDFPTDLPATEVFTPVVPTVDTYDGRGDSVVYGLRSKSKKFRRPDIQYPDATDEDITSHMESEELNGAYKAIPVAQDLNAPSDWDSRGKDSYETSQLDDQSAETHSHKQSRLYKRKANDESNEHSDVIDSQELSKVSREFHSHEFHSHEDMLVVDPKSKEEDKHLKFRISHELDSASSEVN
T3 sequence (P02769 25-607 limits assumed): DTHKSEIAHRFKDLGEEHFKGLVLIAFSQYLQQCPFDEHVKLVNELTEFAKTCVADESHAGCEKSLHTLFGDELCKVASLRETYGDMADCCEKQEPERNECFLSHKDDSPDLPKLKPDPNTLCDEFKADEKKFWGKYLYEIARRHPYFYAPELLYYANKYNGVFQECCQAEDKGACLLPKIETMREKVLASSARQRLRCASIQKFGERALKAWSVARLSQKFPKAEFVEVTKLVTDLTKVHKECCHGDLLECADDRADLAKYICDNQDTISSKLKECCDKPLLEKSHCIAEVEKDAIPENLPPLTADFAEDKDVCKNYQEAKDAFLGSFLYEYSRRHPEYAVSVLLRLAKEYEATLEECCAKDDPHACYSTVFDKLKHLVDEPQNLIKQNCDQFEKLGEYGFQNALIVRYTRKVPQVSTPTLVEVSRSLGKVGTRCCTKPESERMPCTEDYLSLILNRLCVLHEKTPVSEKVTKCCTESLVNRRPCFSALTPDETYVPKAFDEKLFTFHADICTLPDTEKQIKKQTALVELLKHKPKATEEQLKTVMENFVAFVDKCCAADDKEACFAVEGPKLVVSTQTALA

B1: R2K1v1.8 antibody (antibody, V domains shown)
VH: QVQLVQSGAELVRPGSSVKVSCKASGYTFTDYEMHWVKQTPVHGLEWIGAIHPGRGGTAYNQKFKGKATLTADKSTSTAYMELSSLTSEDTAVYYCTRITGYFDVWGQGTTVTVSS
VL: DVVMTQSPLSLPVTLGQPASISCRSSQSIVHSNGNTYLEWYLQKPGQSPQLLIYKVSNRFSGVPDRFSGSGSGTDFTLKISRVEAEDVGVYYCFQGSHVPLTFGQGTKLEIKR
notes: Only entries with a leader are tied to VH1.8 and VL1.8; also called humanized 2K1 antibody; R2K1 antibody
In assay [1], B1 had a Mean cell count (migration of TNF-alpha-activated human peripheral blood monocytes, 48-well microchemotaxis chamber; antibody 50 ug/mL) of 688 cells/mm^3. Besides, the binding result in assay [2] was “binds”.

B2: R2K1v1.7 antibody (antibody, human IgG1, kappa, V domains shown)
VH: B1 VH with V5Q, L11V, V12K, R13K, S16A, S25L
VL: B1 VL with P12S
For the molecule B2, the fold binding affinity against the corresponding monkey OPN peptide in assay [3] is > 100 times.

B3: polyethylene glycol modified F(ab')2 of the R2K1v1.7 antibody (other, not shown: small tags and cut ends)
heavy: B1 VH with V5Q, L11V, V12K, R13K, S16A, S25L
light: DVVMTQSPLSLSVTLGQPASISCRSSQSIVHSNGNTYLEWYLQKPGQSPQLLIYKVSNRFSGVPDRFSGSGSGTDFTLKISRVEAEDVGVYYCFQGSHVPLTFGQGTKLEIKRTVAAPSVFIFPPSDEQLKSGTASVVCLLNNFYPREAKVQWKVDNALQSGNSQESVTEQDSKDSTYSLSSTLTLSKADYEKHKVYACEVTHQGLSSPVTKSFNRGEC
modifications: maleimidated polyethylene glycol SUNBRIGHT ME-120MA coupled to thiol groups activated by DTT reduction
notes: Made by pepsin digestion of R2K1v1.7, reduction of F(ab')2 to Fab' with DTT and coupling with maleimide-PEG; also called F(ab')2-PEG; F(ab')2-PEG of R2K1v1.7
With B3, the binding result in assay [4] is on record as “binds”.

B4: R2K1v1.7-scFv (scFv)
scFv: QVQLQQSGAEVKKPGASVKVSCKALGYTFTDYEMHWVKQTPVHGLEWIGAIHPGRGGTAYNQKFKGKATLTADKSTSTAYMELSSLTSEDTAVYYCTRITGYFDVWGQGTTVTVSSGGGGSGGGGSGGGGSDVVMTQSPLSLSVTLGQPASISCRSSQSIVHSNGNTYLEWYLQKPGQSPQLLIYKVSNRFSGVPDRFSGSGSGTDFTLKISRVEAEDVGVYYCFQGSHVPLTFGQGTKLEIKR
notes: Structure VH1.7-linker-VL1.7, expressed in E. coli HB2151 periplasm, nearly all monomeric by gel filtration; also called scFv of R2K1v1.7; purified R2K1v1.7-scFv; not shown: C-terminal E-Tag from the pCANTAB5E vector, and any joining residues from the NotI site
Regarding B4, the binding result was “binds” in assay [5] and “no binding” in assay [6].

Values taken from patent US20090053212A1 (Astellas, published 2009).
